Source: the domain aggregation screens of Martell et al. (2025)

Assay: soluble fraction after stress (log2 fold change); higher = more stays soluble; pooled small domains, quantitative proteomics
Settings: stress: 75 degC
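Also: 20 min heating vs room temperature control held 20 min.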

| Sequence | soluble fraction (log2) |
| --- | --- |
| HMDPKWSHVRRLLDDENPIVRKALTEELIRSPEEGLAFLEQVIREPDHLLAKHAHNLLSELGWV | 0.192 |
| HMDPLGHVIKKKRLQLGMTLRDLAAKAGVHHATIDRIETDQFKVVDPSTLVKIAEALHLDQLYLLSLN | -0.666 |
| HMDPLPDEVQEVIDMVDGFKAMDELSEADKADVKAAYDAYNALSAEHKAMVPEHIVTFLNRAYDKLFD | 0.159 |
| HMDPPVDLTPREQQVLSRIALGMSDKAIAAELGVSHQTVRNHVARIYAKIKVHSRSQAIVWAREKGIP | -2.36 |
| HMDPSKMKIDELEIATRTATALADGGIKSVAGLIRKSASALKELDGVGDKAIAEITEALEKLGLELKG | 0.106 |
| HMDPSWVPVFNNLRDAILSHQLLPGTRLAEDELSNIYGLGRTVIRSALGALTHEGLLTHIPNRGVHVAKP | -1.16 |
| HMDPTIAAIRKKLKNWTIVEVHMTREELEQAVIDGKVDVFLSSAGFYRRLVRFGARDLATAMSPAYPD | -0.68 |
| HMDPTYYFNLYPNPSKDEVSLFTNFTGKINIEILDLAGKSILSDNPISTISLVSLKEGLYLVKVKS | -0.178 |
| HMDPYLSGLLQKLAETDKKISFTRLRSEDLDGESREAIYEFIEKYSGRFGVRWLLNEFGLSPSVYYNYLHS | -0.727 |
| HMDQDLGFLINKYFELGKDYNTLVEIYEKIKEYIASIDKKMLEYTKNFTIEQLKKWLDDGTINNIILTLG | -0.122 |
| HMDQEDAYMQVRQVFDTLLVSELSKRIFAWRFFEGKSFAEWPGAESQKFLYDTFNRILLIISAKIRRKNA | -0.0464 |
| HMDQHERQQLLIHIAGGEREALAELYQRTRSAVYGLALSYLKNAHDAQDLTRDVYVQVWDRA | -0.0158 |
| HMDQQTKFKTALAALAASAETKDRKLTKADVKEFLEDMDLGEEQMKLVYAYLASKHIHVEGAE | ≥ 1.04 |
| HMDQSIDADIINLNFSKNIIKIEENVYYKNNNAKVNADKIEINIETKKLKISMNEQEDEVEIFAK | 0.552 |
| HMDQTIFFGQQKAINNLSTDAGLSATELDEYLKKRYKRPLYQLTQAEGAEIIKGFQDGALSRSSILDYTK | 0.0434 |
| HMDRKFFFNEQYEDYINSDLKVKFMNDSGSKKSFQGELTKVTPSDLFLESEKESVKVPFSSIIQANLI | -0.197 |
| HMDRLTISTLGNGLFRVNGAEAEATVYNLSGNVVKVVPADEVIDLSSLAKGVYIIHVDGEAFKVI | -1.13 |
| HMDRMFQPETWSKIYQWVMNDPQVPDKEDVLALIRRHFGNFEKLIKLLHYLDGGKPYAYLSEH | -0.473 |
| HMDRSLYVGDAVGFDSARGLMEIEVKNKFSVVAVSLKKKPSGNFITPLLRMEKKKGEAVTVAPGSGHR | -0.514 |
| HMDRSQRDQEQAQLIRLVQQAFDDSGQRYGAEKIRITLAEGGIRVSTKRIAAIMQELDLRSI | -2.41 |
| HMDRSRAEIDLGHVETAIRTLAEGGMVQEYAIGGRSLKRYKMGELLQLKAELENEINMERRKEKMRQ | 0.212 |
| HMDRVDGWLHDGKLYLRVVDYKTGKKSFDLAELRYGLGLQMLLYLFTLKEEGQMLFGGHEIVPAGVL | -0.514 |
| HMDRVSEITLTRLRDYAADGQVRTATLTHRTNVVTGTLRDGRRFSAGVPPMYGDELTTFLLDNGVRVDSDN | -0.41 |

| Sequence | soluble fraction (log2) |
| --- | --- |
| HMDSDMGQQLKTLLTVGTFMSSKELKAIAQQLGLKKPTDLKEWVELESGTQRIEGKPTKGYWIKMNDINN | -0.367 |
| HMDSGINVWASAEGLTITADKDTTVYVYDIYGRTIHTSEVKAGTSDIAINTKGIVIVKANGYTKKII | -1.77 |
| HMDSILSIVGGEESYKALLAWAENNISQQELQQLETILKSGNVPAIKRVLVTLMNRFNQAQS | -0.114 |
| HMDSINGEASISRELHGTRFDQAAAILFPEFSRSRLQAWIGAGALTLDGQTARAKDKVTQGQHLVLAAAVE | -0.54 |
| HMDSINIDEETAKLGPNAPQIIDGIKKWGQGLVAKGVWSDEDFDEFKVFAATSSGINALNKIRKYY | 0.188 |
| HMDSKYLRIFSTLIDEMEKMSPGEQLQSERELSQRFQVSPMTVRRALHKLSTEGYTSAIPGKGTFVRK | -0.707 |
| HMDSLELADEVGRVSEALQELRPHQREVLELSLVHGRSHQQISEKTGLALGTVKSHARRGLMRVREMLGV | -0.381 |
| HMDSLIEYENERSLRRLINENLSDYERTVWWLYYAGADAAHIAEQTGRSKRSAENAITRVRRKLRALITQS | -1.33 |
| HMDSNISVSEALEMVDKGSVKEIIVEGEKLYITNQDGKQYTSSKEVGVSLIELMKDSGIDPIKSDVNIIVK | 0.463 |
| HMDSRVRHAVLTTLLGKRIVDDLVEKGELPGTPLVLATAPGLDRDLEQLIAQRVVTALLTTV | -0.0018 |
| HMDSSALEPIVDQIIADNPKQVEQFQAGKTKVLGFFVGQVMKQTDGTANPKQVNELVAARLKSA | 0.0418 |
| HMDSTDSIIHYVRAHRSLEVKNLSFAEARFKKVVELEPNFARGWLGLGEVSILKNNFENASIYLDKALE | -0.282 |
| HMDSTLTNEIYNELYRAITHQELKPGQNLTLTMLKKQFNVSHTPIREALTRLSADGLVTYHPNKGMKVT | -0.444 |
| HMDSTTHALALVRTLPRDQAEAVLLRVVADLDYADVAEIMGRSPGAVRVLVHRGLRRLEQELATRRT | -0.574 |
| HMDSVEYRVITGDDVNFRKGPSTDYASLGKLNKGYKVEYISETNSWSKVKYNGQTGYVYSKYVAQT | -0.155 |
| HMDSVTVPDISGYSPKAAEDSINNAGLKINEQGLSGSGDGQVVERTSPSAGSKVKKGDSVTVYYSKA | 0.0423 |
| HMDTDVFLMDLRGESRDYAEEVLINNNLEVKVIILPFSKRHYPGKVVEMRPSPFTKVKKGRIITLSVAGN | -3.73 |
| HMDTDWDVSGVTPDQYRLLFSVLGGLAGVKDVGLNPDGLRIIHTPEALPSIEKAFQANGLKLKRNVD | -0.0943 |
| HMDTETLIDKYQLNASEAAVLRFMDKNRDSLRDLGIRDVARASYVSTATIVNMAKKIGYSGYSELVFAYGS | -3.69 |
| HMDTFSVAIGTKTPDGSSVGEVKTISRDELLLLEDEVAEDPTKEIIFTGGTKDSAQAALDGWIDYNTNLAS | 0.0395 |
| HMDTFYKNLSKKIKTIREKLSFSQEALAKELGISRVAISQIENGDRKISAEEIAKLSRVFNVPTDILLN | -0.281 |
| HMDTHDVQVPQEGQGLRLDLFLTDHIEGSRSFIQTIIKDGHVILNGKKAKANSRLNEGDYVVWSIPKPE | -0.288 |
| HMDTHRLNYSDFVAEVQAQRVSKVVIDGYTIVGQRTNGETFETVRPALQDPKLVDDLLQNNVIIEGKQPE | -0.0116 |

| Sequence | soluble fraction (log2) |
| --- | --- |
| HMDTIVHFLSDGRRITVRIKRNARKNIILRPMAADAVSATIPPWLGRRQLSAWLSEREDLLLSVLSRAA | -3.34 |
| HMDTLESYVKRLEKLEGIADSFKGVSKAFALQAGREIRIMVESEKITDEEAVWLSKDIARRIENELEYPG | -0.331 |
| HMDTNKMLIVNSISNGMKRLQELQDPQLAEIQKTFSGLDEQKATSAQLAQINNIINNRIAEIEG | 0.23 |
| HMDTNPKVIITMDGVNVRSSASTGSDILFIAEKGEEYELISESGDFYKILYEGNKEGYVASWLVETSE | 0.239 |
| HMDTNVKLLSPKQADFFASKLANNQNFSSKFAKVGEDMQPFIERISSELQQDISQVIVYMPYLLESGFKQ | -0.328 |
| HMDTNVPVPNVNGMTLNQAKAALEAAGFHVAVNWLGEKSDNNSVISYEPNGSAAKGTTITITVIAQPEQDG | 0.0988 |
| HMDTPPGLSPEEQAIIDIITTRGDATINELTASIDIPTPRLMGMLVDMEFRSLIAAIPGGRYRI | -1.82 |
| HMDTRQFWEQWVADEIRTFEHKDRKQLFGWFEGNKPKLGQMKKLGYGDLLTKVQTSWDEIYQQKE | 0.0857 |
| HMDTRSSARKALDAVNLLLETYGAKAYQHSYEIAGRRQQFQTPGDFMAFRSRLMAEVATEENAARINA | -0.211 |
| HMDTSKIDYSEFITMLDKGEVESVVLKSDTLTVTLKHGTGMAAQTKTVTLMEDLSELTKRLEKAGVKSFDK | 0.614 |
| HMDTVIAEVTASILNLRRSAGTSSDIIGKLNKGEKVSIIGGSGNWKNVRTSGGITGWVYHEYLSTY | -1.46 |
| HMDTYDSIDSILEERHLSRRKLAQAIGLPPSTFQSMMSRKSGMTLEVLMKIVSYLQVSPDAFW | -3.17 |
| HMDVAWDAIKAKLKEVVDAEDKAHPLNDDQIVKALGESGITIARRTIAKYRDLLGIPPARKRKA | -0.213 |
| HMDVIGLEAAKSAAVKDAGISSPTFTKATLDRDDGRSLYEIEFISGSTKYEYDIDALTGSVLSKKTRALS | 0.207 |
| HMDVKPWERQEGESAKAFEAFTIYAGLGADRSLRAVAQQLGKSKTLMDRWSSTYSWVARAAEYDADLQRK | -0.489 |
| HMDVLFGNRLRQLLDERNISQAHFADRIGVSRSRMNNYVAQRSEPDYATLIRIANTLDTSIDFLLGKS | -2.36 |
| HMDVLIQEIGKRLRIQRLAMGLTQEELAKRAGISLSTLKLMEQQGKGSLQRLAKVAVVLDLDGDLRGLF | -2.87 |
| HMDVLKVFSHNVRRYRTQLGLSQETVAFRTGLHRTYISAVERGKRSISLDNIQKIADALEVETYLLFI | -1.76 |
| HMDVLNPGDKAVTTASWLNFRTGPGMQNKVASVLARNTTVNIIEKSNEWYKVSLANGSTGYVHGMYLSKIT | -1.73 |
| HMDVLSQYGSRGEEVGKIQTRLKSWGYFSGEVTGYYGSQTTEAVKRFQQKHGLSATGVADRKTLELIGIS | -0.307 |
| HMDVLTARENEVLQLLAKGMSNKEIASVLVITEKTVKAHVSSILSKLNLSDRTQAALYAVKNGI | -0.763 |
| HMDVNMLVTGMLHKGEKSFVRVSFLRGKDWAEGIVPDAKIEKSQGFMEEEVARLEAYLLEQKSMIMEQA | -1.83 |
| HMDVQGFVMDLDKPLDKEPIVEGFELKLEDSLTLVAAVNKDKSINSLFDELSKLGIKVKSMRNPP | 0.0316 |
